The record followed here is article PMC5342555, “ATAD2 is an epigenetic reader of newly synthesized histone marks during DNA replication” (Oncotarget, 2016).

B1: WT: TagGFP-tagged WT ATAD2 expressed in MCF7 cells (protein)
chain: MVVLRSSLELHNHSAASATGSLDLSSDFLSLEHIGRRRLRSAGAAQKKPAATTAKAGDGSSVKEVETYHRTRALRSLRKDAQNSSDSSFEKNVEITEQLANGRHFTRQLARQQADKKKEEHREDKVIPVTRSLRARNIVQSTEHLHEDNGDVEVRRSCRIRSRYSGVNQSMLFDKLITNTAEAVLQKMDDMKKMRRQRMRELEDLGVFNETEESNLNMYTRGKQKDIQRTDEETTDNQEGSVESSEEGEDQEHEDDGEDEDDEDDDDDDDDDDDDDDEDDEDEEDGEEENQKRYYLRQRKATVYYQAPLEKPRHQRKPNIFYSGPASPARPRYRLSSAGPRSPYCKRMNRRRHAIHSSDSTSSSSSEDEQHFERRRKRSRNRAINRCLPLNFRKDELKGIYKDRMKIGASLADVDPMQLDSSVRFDSVGGLSNHIAALKEMVVFPLLYPEVFEKFKIQPPRGCLFYGPPGTGKTLVARALANECSQGDKRVAFFMRKGADCLSKWVGESERQLRLLFDQAYQMRPSIIFFDEIDGLAPVRSSRQDQIHSSIVSTLLALMDGLDSRGEIVVIGATNRLDSIDPALRRPGRFDREFLFSLPDKEARKEILKIHTRDWNPKPLDTFLEELAENCVGYCGADIKSICAEAALCALRRRYPQIYTTSEKLQLDLSSINISAKDFEVAMQKMIPASQRAVTSPGQALSTVVKPLLQNTVDKILEALQRVFPHAEFRTNKTLDSDISCPLLESDLAYSDDDVPSVYENGLSQKSSHKAKDNFNFLHLNRNACYQPMSFRPRILIVGEPGFGQGSHLAPAVIHALEKFTVYTLDIPVLFGVSTTSPEETCAQVIREAKRTAPSIVYVPHIHVWWEIVGPTLKATFTTLLQNIPSFAPVLLLATSDKPHSALPEEVQELFIRDYGEIFNVQLPDKEERTKFFEDLILKQAAKPPISKKKAVLQALEVLPVAPPPEPRSLTAEEVKRLEEQEEDTFRELRIFLRNVTHRLAIDKRFRVFTKPVDPDEVPDYVTVIKQPMDLSSVISKIDLHKYLTVKDYLRDIDLICSNALEYNPDRDPGDRLIRHRACALRDTAYAIIKEELDEDFEQLCEEIQESRKKRGCSSSKYAPSYYHVMPKQNSTLVGDKRSDPEQNEKLKTPSTPVACSTPAQLKRKIRKKSNWYLGTIKKRRKISQAKDDSQNAIDHKIESDTEETQDTSVDHNETGNTGESSVEENEKQQNASESKLELRNNSNTCNIENELEDSRKTTACTELRDKIACNGDASSSQIIHISDENEGKEMCVLRMTRARRSQVEQQQLITVEKALAILSQPTPSLVVDHERLKNLLKTVVKKSQNYNIFQLENLYAVISQCIYRHRKDHDKTSLIQKMEQEVENFSCSR
modifications: left off: tagGFP, end not stated, kept
notes: TagGFP-tagged WT ATAD2 expressed in MCF7 cells
B2: BD mut: TagGFP-tagged BD mutant ATAD2 (V1013A, Y1021A, Y1063A, I1074A) expressed in MCF7 cells (protein, UniProt Q6PL18 1-1390, looked up, variant V1013A Y1021A Y1063A I1074A)
ATPase family AAA …: B1 chain with V1013A, Y1021A, Y1063A, I1074A
modifications: TagGFP tag
notes: TagGFP-tagged BD mutant ATAD2 (V1013A, Y1021A, Y1063A, I1074A) expressed in MCF7 cells
B3: ATPase mut: TagGFP-tagged ATPase mutant ATAD2 (K473T, E532Q) expressed in MCF7 cells (protein)
chain: B1 chain with K473T, E532Q
modifications: left off: tagGFP, end not stated, kept
notes: TagGFP-tagged ATPase mutant ATAD2 (K473T, E532Q) expressed in MCF7 cells

Numbering of substitutions follows the chain as printed. In names and notes the source's numbering stands.

In one assay the test system is MCF7 cells. The experiment in a line: EdU incorporation (DNA replication) by flow cytometry. The conditions noted are these: MCF7 overexpressing tagGFP-tagged ATAD2, gated by tagGFP; mean ± SEM, n = 3 independent experiments. In kind it is cell-based. The method, then:
informed consent was obtained (Indivumed, Hamburg, by incubating cells with primary antibodies for 1 h at Germany; Asterand, Detroit USA; Provitro Berlin, RT followed by labelling with secondary antibodies Germany) of different indications. Immunohistochemistry conjugated with Alexa488 or Alexa647 for 30 min at was performed using EnVision System-HRP (DAB) from RT in dark. For analysis of TagGFP-ATAD2 expressing Dako (K4006 and K4010). Prior to immunostaining the cells GFP was stained by GFP antibody to enhance the slides were deparaffinized and rehydrated in xylene and fluorescence signal. DNA was stained by DAPI at 1 μg/ graded ethanol to distilled water. Antigen was retrieved by ml for 10 min at RT. For EdU (5-ethynyl-2'-deoxyuridine) incubating the tissue in boiling Target Retrieval Solution labelling cells were incubated in 10 μM EdU for 2h at 37 pH 6.0 (Dako S2031) for 40 min and letting them cool °C prior to fixation and staining was carried out according […]
Peroxidase-Block for 15 min at RT the slides were washed Fluor® 647 Flow Cytometry Assay Kit, ThermoFisher). twice in washing buffer (PBS with 0.05 % Tween 20) and Cells were analyzed by flow cytometry using a BD LSR incubated with primary antibodies in Antibody-Diluent II. All imaging and quantifications were performed using […]
(Dako S2022) for 90 min at RT. […]
Immunofluorescence of cells were saved for whole cell extract and the rest was subjected for subsequent fractionation. Whole cell extract […]
and fixed in 2 % FA for 10 min at RT. […] The image series were imported in Fiji and 100 % MeOH for 10 min at – 20 °C and incubated in average fluorescence was in the bleached region (F(t)ROI), […]
(In general: In flow cytometry, cells or beads pass a laser one at a time.)
As for B1, the “EdU incorporation (normalized to control)” value was 0.75 ± 0.03.

B2: the “EdU incorporation (normalized to control)” value is on record as 0.5 ± 0.10.

Regarding B3, the “EdU incorporation (normalized to control)” value worked out at 0.38 ± 0.09.

For a further assay, the system named is MCF7 cells. The experiment in a line: Fluorescence recovery after photobleaching (FRAP). In kind it is cell-based. As to conditions: TagGFP-tagged ATAD2 in MCF7, FRAP, 20 images; mean ± SEM. How it is done:
Immunofluorescence of cells were saved for whole cell extract and the rest was subjected for subsequent fractionation. Whole cell extract
Cells were grown on Matrigel-coated coverslips and was prepared by incubating cells in ice-cold RIPA buffer fixed in 4 % formaldehyde in PBS for 15 min at RT or in (25 mM Tris·HCl pH 7.6, 150 mM NaCl, 1 % NP-40, 1 100 % methanol for 7 min at -20 °C. After removing the % sodium deoxycholate, 0.1 % SDS) supplemented with residual FA or methanol by washing in PBS cells were protease inhibitor cocktail (Roche) for 10 min on ice and permeabilized in blocking solution (10 % goat serum sonicated at medium power, 0.5 intervals in BIORUPTOR and 0.3 % Triton X-100 in PBS) for 10 min at RT and for 3 min at 4 °C. Soluble lysate was recovered by incubated with primary antibodies in blocking solution. removing insoluble fractions after centrifugation at 20000 Following the removal of unbound antibodies by washing x g for 10 min 5 to 20 μg of lysates were used for SDS gel in PBS cells were incubated with secondary antibodies electrophoresis and Western blot. conjugated with Alexa Fluor 488, 555 or 647 (Invitrogen), washed and mounted on slides in presence of DAPI for Fluorescence recovery after photobleaching visualization of nucleus. Images were acquired using an (FRAP) inverted Zeiss LSM700 confocal microscope using a 488 nm Diode-Pumped Solid State Laser with a 63X, 1.3 N.A. FRAP experiment was performed as previously oil-immersion objective. For EdU labelling cells were described with minor modifications. […]
and fixed in 2 % FA for 10 min at RT. […] The image series were imported in Fiji and 100 % MeOH for 10 min at – 20 °C and incubated in average fluorescence was in the bleached region (F(t)ROI), stain buffer with 5 % normal goat serum for 10 min at the total cell nucleus (F(t)total) and a background (F(t)BG) RT for blocking. Then indirect staining was performed were determined. The relative fluorescence intensity
B1: the “half recovery time (recovery t1/2)” value amounted to 17.740 s.

On to B2, for which the “half recovery time (recovery t1/2)” value is 7.951 s.

On to B3, for which the “half recovery time (recovery t1/2)” value came out at 2.514 s.
